The text below walks through data of patent US20230192894A1.

In this assay the target is canine FcεRIα on the surface of canine mast cell line HMRC cells (canine). Kind of assay: flow cytometry, FITC-labelled control on canine mast cell line HMRC.

In the case of “mouse IgG2b isotype control labeled with FITC (antibody)”, the median fluorescence intensity came to 1720.
